Substitutions are numbered along the chain they refer to. Like-named read-outs stand apart in the source and are kept apart here.
Columns and labels:
Pot1pC [1] = biological target: T1, Pot1pC (Schizosaccharomyces pombe, UniProt O13988 178-389); assay: EMSA
T1 sequence: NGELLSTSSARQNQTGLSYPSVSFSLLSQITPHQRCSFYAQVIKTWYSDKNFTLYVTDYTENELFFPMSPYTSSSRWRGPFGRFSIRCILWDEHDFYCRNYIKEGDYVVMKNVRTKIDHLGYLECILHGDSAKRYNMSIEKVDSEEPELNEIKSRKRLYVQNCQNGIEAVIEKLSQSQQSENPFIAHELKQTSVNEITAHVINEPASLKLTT

Pot1pC [2] = biological target: T1, Pot1pC; assay: EMSA; remark: listed apart in the source
Pot1-DBD_V97A = biological target: T2, Pot1-DBD_V97A (Schizosaccharomyces pombe, UniProt O13988 1-389, V97A); assay: filter binding
T2 sequence: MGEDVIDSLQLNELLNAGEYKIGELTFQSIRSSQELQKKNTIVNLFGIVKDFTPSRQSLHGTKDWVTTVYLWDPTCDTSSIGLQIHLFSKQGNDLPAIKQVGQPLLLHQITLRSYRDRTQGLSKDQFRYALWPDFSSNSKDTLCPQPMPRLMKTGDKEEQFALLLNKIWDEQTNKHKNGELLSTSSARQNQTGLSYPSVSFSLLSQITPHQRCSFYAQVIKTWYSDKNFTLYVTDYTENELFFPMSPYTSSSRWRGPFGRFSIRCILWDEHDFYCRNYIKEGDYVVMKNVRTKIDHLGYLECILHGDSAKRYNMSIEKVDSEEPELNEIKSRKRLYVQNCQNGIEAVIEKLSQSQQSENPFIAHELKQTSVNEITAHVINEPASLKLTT

Pot1-DBD_Q91A = biological target: T3, Pot1-DBD_Q91A (Schizosaccharomyces pombe, UniProt O13988 1-389, Q91A); assay: filter binding
T3 sequence: T2 sequence with Q91A, A97V

Pot1-DBD = biological target: T4, Pot1-DBD (Schizosaccharomyces pombe, UniProt O13988 1-389); assay: filter binding
T4 sequence: T2 sequence with A97V

Pot1pN_S123A = biological target: T5, Pot1pN_S123A (Schizosaccharomyces pombe, UniProt O13988 1-185, S123A); assay: filter binding
T5 sequence: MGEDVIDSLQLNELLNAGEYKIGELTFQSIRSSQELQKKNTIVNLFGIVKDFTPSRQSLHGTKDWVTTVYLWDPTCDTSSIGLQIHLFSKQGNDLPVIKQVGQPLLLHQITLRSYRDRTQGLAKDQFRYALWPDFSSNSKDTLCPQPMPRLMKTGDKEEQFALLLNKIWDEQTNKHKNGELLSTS

Pot1pN_Y115A = biological target: T6, Pot1pN_Y115A (Schizosaccharomyces pombe, UniProt O13988 1-185, Y115A); assay: filter binding
T6 sequence: T5 sequence with Y115A, A123S

Pot1pN_T62A = biological target: T7, Pot1pN_T62A (Schizosaccharomyces pombe, UniProt O13988 1-185, T62A); assay: filter binding
T7 sequence: T5 sequence with T62A, A123S

Pot1pN = biological target: T8, Pot1pN (Schizosaccharomyces pombe, UniProt O13988 1-185); assay: filter binding
T8 sequence: T5 sequence with A123S

Pot1pN_D64A = biological target: T9, Pot1pN_D64A (Schizosaccharomyces pombe, UniProt O13988 1-185, D64A); assay: filter binding
T9 sequence: T5 sequence with D64A, A123S

Which Kd (Pot1pC [1]) does the source give for CGTTACGGT (ssDNA) [9mer_G1C] here?
The Kd was 1000 ± 100 nM.

With GGTTACGG (ssDNA) [8mer-3'] as the binder, how does the Kd (Pot1pC [1]) read?
Its Kd is 1900 ± 300 nM.

Which Kd (Pot1pC [2]) does the source give for GGTTACG (ssDNA) [7mer-3'] here?
The Kd was 10500 ± 1900 nM.

How did the Kd (Pot1-DBD_V97A) turn out when GGTTAGGGTTAC (ssDNA) [12mer_C6G] was run?
Its Kd is 100 ± 10 nM.

With GGTTACGGA (ssDNA) [9mer_T9A] as the binder, how does the Kd (Pot1pC [1]) read?
The Kd was 2000 ± 400 nM.

For CGTTACGGTTAC (ssDNA) [12mer_G1C], which Kd (Pot1-DBD_Q91A) is on record?
Its Kd is 50 ± 6 nM.

And the Kd (Pot1-DBD_V97A)?
Its Kd is 70 ± 7 nM.

GCTTACGGT (ssDNA) [9mer_G2C] was tested. Which Kd (Pot1pC [1]) did it give?
The Kd was 3000 ± 600 nM.

What does the source list for GGTTACGGTTACGGTTACGGTTAC (ssDNA) [24mer]?
Kd (Pot1-DBD_Q91A): 0.06 ± 0.003 nM; Kd (Pot1-DBD_V97A): 0.06 ± 0.004 nM

How did the Kd (Pot1pC [2]) turn out when CGGTTAC (ssDNA) [7mer-5'] was run?
Its Kd is 35000 ± 8000 nM.

For GGTTACGGTTACGGT (ssDNA) [15mer], which Kd (Pot1-DBD_Q91A) is on record?
Its Kd is 0.04 ± 0.003 nM.

And the Kd (Pot1-DBD_V97A)?
Its Kd is 0.04 ± 0.004 nM.

Does GGTTACGGTTACGGT (ssDNA) [15mer] bind (Pot1-DBD)?
Result: binds

GGTTACGGT (ssDNA) [9mer-3'] was tested. Which Kd (Pot1pC [1]) did it give?
The Kd was 400 ± 70 nM.

For GGTTACGGTT (ssDNA) [10mer-3'], which Kd (Pot1pC [1]) is on record?
The Kd was 300 ± 40 nM.

GGTTAC (ssDNA) [6mer] was tested. Which Kd (Pot1pN_S123A) did it give?
Its Kd is 100 ± 10 nM.

And the Kd (Pot1pN_Y115A)?
Its Kd is 300 ± 20 nM.

What about the Kd (Pot1pN_T62A) of the same binder?
The Kd was 500 ± 50 nM.

And the Kd (Pot1pN)?
Its Kd is 30 ± 20 nM.

What about the Kd (Pot1pN_D64A) of the same binder?
Its Kd is 400 ± 30 nM.

How did the Kd (Pot1pC [2]) turn out when ACGGTTAC (ssDNA) [8mer-5'] was run?
The Kd was 15000 ± 2000 nM.

Which Kd (Pot1pC [1]) does the source give for GGTTACGGTTA (ssDNA) [11mer-3'] here?
Its Kd is 600 ± 100 nM.

How did the Kd (Pot1pC [1]) turn out when GGTTAGGGT (ssDNA) [9mer_C6G] was run?
Its Kd is 300 ± 50 nM.

Does CCAATGCCCAATGC (ssDNA) [C-rich complementary sequence] bind (Pot1pC [1])?
Result: no binding

With GGTTTCGGTTAC (ssDNA) [12mer_A5T] as the binder, how does the Kd (Pot1-DBD_V97A) read?
The Kd was 50 ± 4 nM.

With GGTAACGGT (ssDNA) [9mer_T4A] as the binder, how does the Kd (Pot1pC [1]) read?
The Kd was 700 ± 300 nM.

Which Kd (Pot1pC [1]) does the source give for GGTTACGCT (ssDNA) [9mer_G8C] here?
Its Kd is 800 ± 200 nM.

How did the Kd (Pot1pC [1]) turn out when GGTTACCGT (ssDNA) [9mer_G7C] was run?
Its Kd is 3000 ± 500 nM.

GGATACGGT (ssDNA) [9mer_T3A] was tested. Which Kd (Pot1pC [1]) did it give?
Its Kd is 600 ± 100 nM.
